Where no end group is shown, it is not given here. [ ]: non-standard residue; d: D form. Abu = CC[C@H](N)C(=O)O

First the molecules themselves.
B1: Her2/neu.65 (9-mer) (peptide)
peptide: LPTNASLSF
notes: native HER2/neu peptide from position 65
B2: Her2/neu.600 (peptide)
peptide: CPSGVKPDLSY
notes: native HER2/neu peptide from position 600
B3: Her2/neu.528.B1B4 (peptide)
peptide: BVNBSQFLR
modifications: B at positions 1 and 4 = alpha-amino butyric acid (in place of cysteine)
notes: synthetic analog peptide; also called BVNBSQFLR
B4: Her2/neu.528.B1B4K9 (peptide)
peptide: [Abu]VN[Abu]SQFLK
notes: synthetic analog peptide; also called BVNBSQFLK

The target of one assay is HLA-B*5301 (human). In words: competition with 125I probe peptide, purified HLA.
A word on the IC50: it is the midpoint of a concentration-inhibition curve. Consider FPTNASLSFL (analog peptide) [Her2/neu.65.F1 (10-mer)], for which the IC50 is 172 nM. In other words, the sub-micromolar range. On the same count and under the same terms, for B1 the value was 34 nM.

The target of a further assay is HLA-B*0702 (human). In words: competition with 125I probe peptide, purified HLA.
In turn, FPTNASLSFL (analog peptide) [Her2/neu.65.F1 (10-mer)] registered an IC50 of 18 nM. On the same count and under the same terms, for B2 the value was 183 nM. The same measure, in the same setting: then FPSGVKPDLSI (analog peptide) [Her2/neu.600.F1I11], with 196 nM.

For a further assay, the target named is HLA-B*5101 (human). The experiment in a line: competition with 125I probe peptide, purified HLA.
Turning to FPTNASLSFL (analog peptide) [Her2/neu.65.F1 (10-mer)], the concentration for half-maximal inhibition (IC50) was 262 nM.

Turning to B1, the IC50 amounted to 809 nM.

The target in a further assay is HLA-B*3501 (human). In words: competition with 125I probe peptide, purified HLA.
On to FPTNASLSFL (analog peptide) [Her2/neu.65.F1 (10-mer)], for which the IC50 amounted to 200 nM. Still for that read-out and setting: then B2, with 3600 nM; and FPSGVKPDLSI (analog peptide) [Her2/neu.600.F1I11], with 3270 nM. Molecule B1 showed an IC50 of 114 nM.

For a further assay, the target named is HLA-A*3101 (human). The experiment in a line: inhibition of 125I probe peptide binding to purified HLA.
For the molecule B3, the IC50 was determined as 38 nM. The same measure, in the same setting: then B4, with 60 nM; and CVNCSQFLR (synthetic peptide) [Her2/neu.528], with 34 nM.

Another assay addresses HLA-A*3301 (human). The assay is described as above.
In turn, B3 displayed an IC50 of 58 nM. Take B4: the IC50 came to 4260 nM. Regarding CVNCSQFLR (synthetic peptide) [Her2/neu.528], the IC50 amounted to 50 nM.

For a further assay, the target named is HLA-A*0301 (human). The description is as above.
With B3, the IC50 is 177 nM.

In turn, B4 gave an IC50 of 34 nM. On the same count and under the same terms, then CVNCSQFLR (synthetic peptide) [Her2/neu.528], with 7330 nM.

Another assay has as its target HLA-A*6801 (human). Described as above.
As to B3, the IC50 worked out at 10 nM. Same read-out and setting: for B4 the value was 15 nM; for CVNCSQFLR (synthetic peptide) [Her2/neu.528], 18 nM.

A further assay addresses HLA-A*1101 (human). The description is as above.
In the case of B3, the IC50 amounted to 80 nM. Still for that read-out and setting: then B4, with 22 nM; and CVNCSQFLR (synthetic peptide) [Her2/neu.528], with 194 nM.

A further assay concerns the target T1, HLA-A*0201 (human).
T1 construct: Purified HLA class I molecule; also called HLA-A2.1
In words: competition with 125I-labelled standard peptide for purified HLA-A*0201, gel filtration; ratio to the standard peptide.
As to ELGSGLALI (Synthetic peptide) [HER2/neu peptide, position 460, 9 amino acids], the “relative binding ratio (IC50 of standard peptide / IC50 of test peptide)” value amounted to 0.0004 ratio. Take DVFAFGGAV (Synthetic peptide) [HER2/neu peptide, position 1183, 9 amino acids]: the “relative binding ratio (IC50 of standard peptide / IC50 of test peptide)” value came to 0.0002 ratio. Same read-out and setting: for DVRLVHRDL (Synthetic peptide) [HER2/neu peptide, position 838, 9 amino acids] the value was 0.0002 ratio; for DLLNWCMQI (Synthetic peptide) [HER2/neu peptide, position 821, 9 amino acids], 0.0002 ratio; for FVHTVPWDQL (Synthetic peptide) [HER2/neu peptide, position 476, 10 amino acids], 0.0001 ratio. On the same count and under the same terms, for DLVDAEEYL (Synthetic peptide) [HER2/neu peptide, position 1016, 9 amino acids] the value was 0.0002 ratio; for GAAKGLQSL (Synthetic peptide) [HER2/neu peptide, position 1093, 9 amino acids], 0.0001 ratio; for ELVSEFSRMA (Synthetic peptide) [HER2/neu peptide, position 971, 10 amino acids], 0.0001 ratio. In the case of DLSVFQNLQV [HER2/neu peptide, position 421, 10 amino acids], the “relative binding ratio (IC50 of standard peptide / IC50 of test peptide)” value came to 0.0003 ratio. Still for that read-out and setting: then EILKGGVLI (Synthetic peptide) [HER2/neu peptide, position 147, 9 amino acids], with 0.0001 ratio; and DLVDAEEYLV (Synthetic peptide) [HER2/neu peptide, position 1016, 10 amino acids], with 0.0002 ratio. The same measure, in the same setting: for DVWSYGVTV (Synthetic peptide) [HER2/neu peptide, position 904, 9 amino acids] the value was 0.0002 ratio; for FVVIQNEDL (Synthetic peptide) [HER2/neu peptide, position 986, 9 amino acids], 0.0002 ratio. On the same count and under the same terms, for ELAALCRWGL (Synthetic peptide) [HER2/neu peptide, position 2, 10 amino acids] the value was 0.0001 ratio.
